Results on 5 molecules are retold here after publication PMC5992219, “HuR regulates telomerase activity through TERC methylation”.

Data set [1] concerns HuR (HeLa lysate) (human (HeLa)). The experiment in a line: pull-down. The following applies: biotin-UTP, ITC: 10 mM Tris pH 8.0, 100 mM NaCl, 25 C, UV-crosslinking EMSA: 50 mM Tris pH 7.0, 150 mM NaCl, 0.25 mg/ml tRNA, 0.025 mg/ml BSA, pull-down: 1 ug RNA …. A general note: Mobility shift assays separate free from complexed probe on a gel.
The target in data set [2] is HuR (ITC, SUMO tag removed) (UniProt Q15717 1-326). The experiment in a line: ITC; ITC: 10 mM Tris pH 8.0, 100 mM NaCl, 25 C; UV-crosslinking EMSA: 50 mM Tris pH 7.0, 150 mM NaCl, 0.25 mg/ml tRNA, 0.025 mg/ml BSA, 25 C; pull-down: 1 ug RNA, 100 ug cytoplasmic extract, room temperature, 30 min. The following applies: protein: recombinant; tags: N-terminal 6xHis-SUMO removed by Ulp1.
Chain of HuR (ITC, SUMO tag removed) (Q15717 whole entry): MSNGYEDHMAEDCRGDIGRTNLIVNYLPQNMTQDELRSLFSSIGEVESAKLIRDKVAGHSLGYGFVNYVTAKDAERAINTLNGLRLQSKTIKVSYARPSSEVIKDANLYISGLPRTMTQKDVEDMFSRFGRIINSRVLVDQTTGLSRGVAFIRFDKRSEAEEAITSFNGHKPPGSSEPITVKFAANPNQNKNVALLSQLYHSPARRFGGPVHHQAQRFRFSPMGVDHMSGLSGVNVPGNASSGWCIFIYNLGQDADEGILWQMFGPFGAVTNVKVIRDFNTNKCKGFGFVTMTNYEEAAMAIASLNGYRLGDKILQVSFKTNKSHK

For the molecule TERC U100A, the binding signal (% reduction vs WT) in data set [1] is 70.4.
TERC U40A returned a binding signal (% reduction vs WT) in data set [1] of 70.7.

B1: ITC negative control RNA (ssRNA)
RNA: CUAGACUAGGACUC
For B1, the binding result in data set [2] is reported as “no binding”.

B2: TERC 37-47 oligo (UUUUUU motif) (ssRNA)
RNA: AUUUUUUGUCU
Broadly, the Kd is a measure of binding affinity in units of concentration. On to B2, for which the Kd in data set [2] was approximately 24.3 nM.

B3: TERC 98-107 oligo (GUUUUUC motif) (ssRNA)
RNA: GUUUUUCUCG
In the case of B3, in data set [2], the Kd is approximately 70.4 nM.
